Here are results for two molecules from patent US20210107983A1 (Boehringer Ingelheim, published 2021).

In test [1] the target is T1, Cyno B7H6-His (cynomolgus monkey).
T1 construct: also called CyB7H6; cyB7-H6
T1 chain: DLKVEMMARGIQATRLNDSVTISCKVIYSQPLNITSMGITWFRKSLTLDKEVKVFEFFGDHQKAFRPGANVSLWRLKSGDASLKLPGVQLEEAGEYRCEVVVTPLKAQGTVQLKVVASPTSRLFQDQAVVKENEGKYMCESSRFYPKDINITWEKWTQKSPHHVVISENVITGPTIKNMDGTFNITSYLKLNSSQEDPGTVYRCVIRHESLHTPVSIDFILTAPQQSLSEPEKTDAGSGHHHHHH
As to the kind of experiment: ratio of SPR KDs cyno/human.

Test [2] addresses T2, Cyno CD3 E+G HuFc-6xHis (cynomolgus monkey).
T2 construct: also called CyCD3E+G-hFc; cyCD3
As to the kind of experiment: ratio of SPR KDs cyno/human.

For test [3], the target named is T3, chicken egg white lysozyme (chicken, UniProt P00698 19-147).
T3 construct: unrelated positively charged protein, amine-coupled to the chip; also called Lysozyme (positive)
T3 sequence (P00698 19-147): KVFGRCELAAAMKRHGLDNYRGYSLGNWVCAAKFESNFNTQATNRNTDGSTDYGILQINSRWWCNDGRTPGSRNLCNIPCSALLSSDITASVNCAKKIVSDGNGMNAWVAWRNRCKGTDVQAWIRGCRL
As to the kind of experiment: SPR, 1 µM binder over immobilized lysozyme. In a few lines:
(§1)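 Non-specific binding tested with samples at 1 μM in HBS-EP at 25 °C, 5 μL/min, over lysozyme or trypsin inhibitor amine-coupled to CM5 chip (3000–5000 RU). Association 10 min, dissociation 15 min.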
On the technique in general: Surface plasmon resonance follows binding to a sensor surface in real time, without labels.

A further test concerns the target T4, Human CD3 E+G HuFc-6xHis (human).
T4 construct: also called HuCD3E+G-hFc; huCD3
As to the kind of experiment: SPR, CD3E+G-hFc immobilized, binder analyte. In a few lines:
(§2)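 On a ProteOn XPR36, human and cyno CD3E+G-hFc were amine-coupled to a GLM chip at 0.4, 0.2 and 0.1 μg/mL in 10 mM acetate pH 4.5. B7H6/CD3 binding protein (0–100 nM) flowed in HBS-EP+ at 30 μL/min, with 300 s association and 600 s dissociation. Interspot and blank responses were subtracted.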

Test [4] concerns the target T2, Cyno CD3 E+G HuFc-6xHis. As to the kind of experiment: SPR, CD3E+G-hFc immobilized, binder analyte. The method in brief:
as §2

Test [5] deals with T1, Cyno B7H6-His. As to the kind of experiment: SPR, binder captured on Protein A/G, B7H6 analyte. In a few lines: (§3)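 B7H6/CD3 binder captured (~700 RU) on a Protein A/G CM5 surface in HBS-EP+. Human or cyno B7H6 injected at 0–100 nM and human B7H1 at 0 nM and 1 μM, 300 s association and 1200 s dissociation. Data double-referenced against the reference flow cell and blank.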
The target of a further test is T5, Human B7H1 (human, UniProt Q9NZQ7 20-239).
T5 construct: also called HuB7H1; huB7-H1
T5 sequence (Q9NZQ7 other isoform, or with tags, fused parts or gaps limits assumed): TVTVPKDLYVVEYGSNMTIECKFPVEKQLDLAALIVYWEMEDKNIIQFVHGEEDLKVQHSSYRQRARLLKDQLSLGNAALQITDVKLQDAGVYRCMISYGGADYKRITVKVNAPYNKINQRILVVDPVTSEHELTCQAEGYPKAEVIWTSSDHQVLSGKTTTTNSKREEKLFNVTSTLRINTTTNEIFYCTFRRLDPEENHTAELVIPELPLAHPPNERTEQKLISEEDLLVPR
In words: SPR, binder captured on Protein A/G, HuB7H1 analyte. In a few lines:
as §3

The target of test [6] is T6, trypsin inhibitor from Glycine max soybean (Glycine max (soybean)).
T6 construct: unrelated negatively charged protein, amine-coupled to the chip
T6 sequence (P01070 25-205): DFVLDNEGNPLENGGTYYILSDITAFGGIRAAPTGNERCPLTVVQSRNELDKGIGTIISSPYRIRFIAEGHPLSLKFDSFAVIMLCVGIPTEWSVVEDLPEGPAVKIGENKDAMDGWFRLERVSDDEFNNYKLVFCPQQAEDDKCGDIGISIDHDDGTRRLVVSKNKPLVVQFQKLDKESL
As to the kind of experiment: SPR, 1 µM binder over immobilized trypsin inhibitor. The method in brief:
as §1

The target in another test is T7, CD3 on human T-cells (human, UniProt P07766;P09693).
T7 construct: endogenous, on the surface of purified T-cells; also called human T-cells expressing CD3
T7 sequence (P07766 23-207, chain 1 of 2): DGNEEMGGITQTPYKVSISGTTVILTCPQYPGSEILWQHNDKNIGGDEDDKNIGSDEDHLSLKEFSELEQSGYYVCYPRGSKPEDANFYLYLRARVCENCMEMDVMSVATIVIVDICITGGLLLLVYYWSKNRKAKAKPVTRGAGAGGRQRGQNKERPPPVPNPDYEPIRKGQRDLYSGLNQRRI
T7 sequence (P09693 23-182, chain 2 of 2): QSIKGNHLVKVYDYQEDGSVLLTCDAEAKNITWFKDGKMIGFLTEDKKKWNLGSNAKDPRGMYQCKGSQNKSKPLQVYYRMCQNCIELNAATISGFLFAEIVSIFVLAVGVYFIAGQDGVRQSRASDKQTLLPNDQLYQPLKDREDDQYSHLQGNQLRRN
As to the kind of experiment: flow cytometry on purified human T-cells, PE anti-human secondary antibody. On the procedure:
T-cells were isolated by negative selection using the Pan T Cell Isolation Kit II (Miltenyi Biotec #130-091-156). In brief, cells were resuspended in 40 μl buffer PBS/0.5% BSA (Gibco ref #041-94553 M)/2 mM EDTA (Invitrogen ref #15575-038) per 10 Mio cells and incubated with 10 μl of Biotin-Antibody cocktail per 10 Mio cells for 5 min at 4° C. Subsequently, 30 μl buffer and 20 μl anti-biotin MACS® MicroBeds/10 million cells were added and incubated for 10 min at 4° C. Subsequently the mixture was placed in a pre-rinsed 25LS column (Miltenyi Biotec #130-042-401) in the magnetic field of suitable MACS® microbeads separator (Miltenyi Biotec). Flow-through was collected and washed in assay medium.
T-cells were stained with increasing concentrations of two-step purified B7H6/CD3 binding proteins in FACS buffer (PBS/0.5% BSA/0.05% sodium azide). Bound molecules were detected with PE-conjugated anti-human secondary antibody (Sigma-Aldrich, #P8047).
In general terms: In flow cytometry, cells or beads pass a laser one at a time.

In test [7] the target is T8, human B7H6 on HCT-15 cells (human, UniProt Q68D85 25-454).
T8 sequence (looked up): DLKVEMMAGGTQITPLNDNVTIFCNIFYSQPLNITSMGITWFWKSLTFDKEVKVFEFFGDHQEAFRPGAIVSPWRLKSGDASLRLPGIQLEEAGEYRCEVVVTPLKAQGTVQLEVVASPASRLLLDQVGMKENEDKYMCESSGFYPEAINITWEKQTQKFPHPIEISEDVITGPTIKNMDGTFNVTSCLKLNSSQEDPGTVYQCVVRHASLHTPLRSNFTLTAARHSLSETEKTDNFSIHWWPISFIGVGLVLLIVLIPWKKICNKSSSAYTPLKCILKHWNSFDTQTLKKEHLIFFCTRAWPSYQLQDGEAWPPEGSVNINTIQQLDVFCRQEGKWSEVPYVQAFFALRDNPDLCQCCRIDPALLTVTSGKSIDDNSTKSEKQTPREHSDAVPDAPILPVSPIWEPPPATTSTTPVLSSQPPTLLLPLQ
In words: cell-based or functional assay.

The target of test [8] is T8, human B7H6 on HCT-15 cells. In words: flow cytometry on HCT-15 cells, PE anti-human secondary antibody. On the procedure: Binding of B7H6/CD3 binding proteins to HCT-15, a human (colo-rectal cancer) CRC cell line was tested by flow cytometry. In a previous experiment, it has been confirmed that HCT-15 cells expresses B7-H6 on the RNA levels as well as the protein level with approximately 8,000 B7-H6 receptors on the cell surface (data not shown). B7H6/CD3 binding proteins were produced, as described in Example 2. HCT-15 cells were stained with increasing concentrations of two-step purified B7H6/CD3 binding proteins in FACS buffer (PBS/0.5% BSA/0.05% sodium azide). Bound molecules were detected with PE-conjugated anti-human secondary antibody (Sigma-Aldrich, #P8047).

Test [9] addresses T9, Fc-His-tagged human B7H6 ECD (human).
T9 construct: also called huB7H6-ECD-Fc-His; recombinant human B7H6 ECD
As to the kind of experiment: ELISA, plate coated with Fc-His-tagged human B7H6 ECD, anti-human IgG F(ab')2-peroxidase, TMB. On the procedure:
To assess binding of B7H6/CD3 binding proteins to recombinant human Fc-His-tagged B7H6 ECD and human Fc-His-tagged Ala-mutated B7H6 extracellular proteins as described in Example 3, MediSorp™ plates (Nunc, 467320) were coated with […] recombinant proteins overnight at 4° C. The next day, plates were blocked with 0.5% bovine serum albumin (BSA) in phosphate buffered saline (PBS) for 1 hour at room temperature (RT). Subsequently plates were washed with […] containing 0.05% TWEEN®20 viscous liquid and B7H6/CD3 binding proteins were incubated at concentrations ranging from 0.00001 to 10 μg/ml. After an additional washing step, bound B7H6/CD3 binding proteins were detected by a peroxidase conjugated goat anti-human IgG F(ab′)₂-specific secondary antibody (Jackson Immunoresearch) and visualized by TMB substrate solution (Bender Med Systems).
Background: In an ELISA, binding on a coated surface is turned into a signal by an enzyme label.

T2 sequence (chain, as listed by the source limits assumed): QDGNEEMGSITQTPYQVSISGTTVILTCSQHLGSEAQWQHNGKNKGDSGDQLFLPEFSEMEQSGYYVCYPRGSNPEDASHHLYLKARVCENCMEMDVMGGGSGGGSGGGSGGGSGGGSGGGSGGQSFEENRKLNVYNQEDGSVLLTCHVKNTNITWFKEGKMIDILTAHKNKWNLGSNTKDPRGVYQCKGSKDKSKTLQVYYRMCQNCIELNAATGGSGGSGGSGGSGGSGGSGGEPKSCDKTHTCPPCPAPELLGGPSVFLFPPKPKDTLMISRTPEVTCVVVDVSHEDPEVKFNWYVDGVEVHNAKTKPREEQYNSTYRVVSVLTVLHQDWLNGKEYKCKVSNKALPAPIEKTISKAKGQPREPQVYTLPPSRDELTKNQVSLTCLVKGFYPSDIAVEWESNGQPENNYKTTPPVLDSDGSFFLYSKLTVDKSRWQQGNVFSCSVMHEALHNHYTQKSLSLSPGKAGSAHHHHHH
T4 sequence (chain, as listed by the source limits assumed): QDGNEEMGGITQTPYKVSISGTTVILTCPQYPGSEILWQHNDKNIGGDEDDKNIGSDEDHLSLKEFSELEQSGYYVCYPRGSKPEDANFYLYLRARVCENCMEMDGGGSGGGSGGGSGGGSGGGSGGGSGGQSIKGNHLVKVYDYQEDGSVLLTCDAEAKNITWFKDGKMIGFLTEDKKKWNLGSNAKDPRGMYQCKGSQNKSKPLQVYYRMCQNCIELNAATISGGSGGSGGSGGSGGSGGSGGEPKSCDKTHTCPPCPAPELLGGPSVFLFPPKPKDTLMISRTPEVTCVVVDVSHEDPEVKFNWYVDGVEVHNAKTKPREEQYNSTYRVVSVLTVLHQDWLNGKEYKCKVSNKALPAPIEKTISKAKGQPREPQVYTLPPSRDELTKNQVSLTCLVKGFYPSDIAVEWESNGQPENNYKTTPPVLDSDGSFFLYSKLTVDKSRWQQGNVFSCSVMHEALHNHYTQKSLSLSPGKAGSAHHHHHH

B1: B7H6#23/CD3#6 (bispecific antibody, human IgG1, kappa, L234A L235A)
chain 1: DIQMTQSPSSLSASVGDRVTITCKASQNVGKYVAWYQQKPGKAPKSLIYSASNRYDAVPSRFSGSGSGTDFTLTISSLQPEDFATYFCQQYISYPLTFGAGTKLEIKRTVAAPSVFIFPPSDEQLKSGTASVVCLLNNFYPREAKVQWKVDNALQSGNSQESVTEQDSKDSTYSLSSTLTLSKADYEKHKVYACEVTHQGLSSPVTKSFNRGECGGGGSEGKSSGSGSESKSTEGKSSGSGSESKSTGGGGSQVQLVQSGAEVKKPGASVKVSCKASGYTFTSYWMNWMKQAPGQGLEWIGGIYLSGESTDYNEKFKGKVTMTVDTSTSTVYMELSSLRSEDTAVYYCTRRGDYFGDFWGQGTLVTVSSASTKGPSVFPLAPSSKSTSGGTAALGCLVKDYFPEPVTVSWNSGALTSGVHTFPAVLQSSGLYSLSSVVTVPSSSLGTQTYICNVNHKPSNTKVDKRVEPKSCDKTHTCPPCPAPEAAGGPSVFLFPPKPKDTLMISRTPEVTCVVVDVSHEDPEVKFNWYVDGVEVHNAKTKPREEQYNSTYRVVSVLTVLHQDWLNGKEYKCKVSNKALPAPIEKTISKAKGQPREPQVYTLPPSREEMTKNQVSLWCLVKGFYPSDIAVEWESNGQPENNYKTTPPVLDSDGSFFLYSKLTVDKSRWQQGNVFSCSVMHEALHNHYTQKSLSLSPG
chain 2: not shown
notes: scFab-Fc heterodimer
Consider B1, for which, in the test with Cyno B7H6-His [1], the “cy/hu B7-H6” value is 1.1. Also, in the test with Cyno CD3 E+G HuFc-6xHis [2], the “cy/hu CD3” value was determined as 1.2. The “Non-specific binding (RU)” value came to 57.2 RU in test [3] and 96.5 RU in test [6]. The dissociation constant (Kd) amounted to 3.4 nM in the test with Human CD3 E+G HuFc-6xHis, 3.9 nM with Cyno CD3 E+G HuFc-6xHis [4] and 2 nM with Cyno B7H6-His [5]. Further, the binding result in the test with Human B7H1 is “no binding (tested: 1 µM)”; with CD3 on human T-cells, “binds”.

B2: B7H6#10/CD3#1 (bispecific antibody, human IgG1, kappa, lambda, L234A L235A)
chain 1: DIQMTQSPSSVSASVGDRVTITCRASQGISSWLAWYQQKPGKAPKLLIYVASSLQRGVPSRFSGSGSGTDFTLTISNLQPEDFATYYCQQANSFPRTFGQGTKVEIKRTVAAPSVFIFPPSDEQLKSGTASVVCLLNNFYPREAKVQWKVDNALQSGNSQESVTEQDSKDSTYSLSSTLTLSKADYEKHKVYACEVTHQGLSSPVTKSFNRGECGGGGSEGKSSGSGSESKSTEGKSSGSGSESKSTGGGGSQVHLQESGPGLVKPSETLSLTCTVSGDSISSYYWSWIRQPAGKGLEWIGHIYTSEKNNYNPSLKSRVIMSVDTSKNQFSLNLSSVTAADTAVYYCARVGNWGSHDAWGQGTLVTVSSASTKGPSVFPLAPSSKSTSGGTAALGCLVKDYFPEPVTVSWNSGALTSGVHTFPAVLQSSGLYSLSSVVTVPSSSLGTQTYICNVNHKPSNTKVDKRVEPKSCDKTHTCPPCPAPEAAGGPSVFLFPPKPKDTLMISRTPEVTCVVVDVSHEDPEVKFNWYVDGVEVHNAKTKPREEQYNSTYRVVSVLTVLHQDWLNGKEYKCKVSNKALPAPIEKTISKAKGQPREPQVYTLPPSREEMTKNQVSLWCLVKGFYPSDIAVEWESNGQPENNYKTTPPVLDSDGSFFLYSKLTVDKSRWQQGNVFSCSVMHEALHNHYTQKSLSLSPG
chain 2: EAVVTQEPSLTVSPGGTVTLTCRSSTGAVTTSNYANWVQEKPGQLPRGLIGGTNKRAPWVPARFSGSLLGGKAALTLSGAQPEDEAEYFCALWYSNLWVFGGGTKLTVLGQPKAAPSVTLFPPSSEELQANKATLVCLISDFYPGAVKVAWKADGSPVNTGVETTTPSKQSNNKYAASSYLSLTPEQWKSHRSYSCQVTHEGSTVEKTVAPAECSGGGGSEGKSSGSGSESKSTEGKSSGSGSESKSTGGGGSEVQLVESGGGLVQPGGSLKLSCAASGFTFNTYAMNWVRQAPGKGLEWVARIRSKYNNYATYYADSVKDRFTISRDDSKNTAYLQMNNLKTEDTAVYYCVRHGNFGNSYVSWFAYWGQGTLVTVSAASTKGPSVFPLAPSSKSTSGGTAALGCLVKDYFPEPVTVSWNSGALTSGVHTFPAVLQSSGLYSLSSVVTVPSSSLGTQTYICNVNHKPSNTKVDKRVEPKSCDKTHTCPPCPAPEAAGGPSVFLFPPKPKDTLMISRTPEVTCVVVDVSHEDPEVKFNWYVDGVEVHNAKTKPREEQYNSTYRVVSVLTVLHQDWLNGKEYKCKVSNKALPAPIEKTISKAKGQPREPQVYTLPPSREEMTKNQVSLSCAVKGFYPSDIAVEWESNGQPENNYKTTPPVLDSDGSFFLVSKLTVDKSRWQQGNVFSCSVMHEALHNRFTQKSLSLSPG
notes: scFab-Fc heterodimer, one B7H6 chain and one CD3 chain
As to B2, the “EC50 [nM], 72 hour cytotoxicity assay, non-stimulated T-cells (Donor #1) as effector cells, HCT-15 cells as target cells” value in test [7] came to 0.53 nM. For the same molecule, the “EC50 (read off the curve)” value in test [8] is about 0.9 nM; in [9], about 0.05 µg/mL.

The term Kd denotes the equilibrium constant for the complex coming apart. Read a high Kd as lower affinity. One may read the EC50 (read off the curve) as the midpoint of the concentration-response curve. The low end stands for a more potent agent, the high end for a less potent agent.
